Positions count from the first letter of the chain named. Numbers in names are those of the source. Read-outs that look alike come from different tables or passages of the source.

Data on 2 molecules can be found in US20260250425A1 (UNIVERSITY OF CHICAGO, published 2026).

Assay [1] deals with T1, human C1q (human, UniProt P02745 23-245; P02746 28-253; P02747 29-245).
T1 construct: Purified human C1q (CompTech); also called hc1q; hC1q
As to the kind of experiment: ELISA, human C1q-coated plate.

In assay [2] the target is T1, human C1q. The experiment in a line: ELISA, human C1q-coated plate. This is another data set of the same source.
Assay [3] deals with T2, mouse C1q (mouse, UniProt P98086 23-245; P14106 26-253; Q02105 30-246).
T2 construct: Plates were coated with BALB/c mouse serum as the source of mouse C1q; also called mc1q
T2 sequence (P98086 23-245 limits assumed, chain 1 of 3): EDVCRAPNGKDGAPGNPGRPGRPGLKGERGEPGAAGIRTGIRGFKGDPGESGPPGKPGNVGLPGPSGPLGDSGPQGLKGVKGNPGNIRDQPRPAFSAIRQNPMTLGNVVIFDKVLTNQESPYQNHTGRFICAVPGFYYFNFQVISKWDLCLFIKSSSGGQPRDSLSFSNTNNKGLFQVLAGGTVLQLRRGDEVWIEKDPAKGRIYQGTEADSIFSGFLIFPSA
T2 sequence (P14106 26-253 limits assumed, chain 2 of 3): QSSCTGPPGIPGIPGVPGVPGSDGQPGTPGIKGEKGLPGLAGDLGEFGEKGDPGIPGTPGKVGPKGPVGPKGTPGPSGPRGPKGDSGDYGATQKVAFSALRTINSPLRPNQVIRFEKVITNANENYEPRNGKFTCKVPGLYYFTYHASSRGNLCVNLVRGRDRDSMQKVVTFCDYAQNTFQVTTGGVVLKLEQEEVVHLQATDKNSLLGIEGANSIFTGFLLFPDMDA
T2 sequence (Q02105 30-246 limits assumed, chain 3 of 3): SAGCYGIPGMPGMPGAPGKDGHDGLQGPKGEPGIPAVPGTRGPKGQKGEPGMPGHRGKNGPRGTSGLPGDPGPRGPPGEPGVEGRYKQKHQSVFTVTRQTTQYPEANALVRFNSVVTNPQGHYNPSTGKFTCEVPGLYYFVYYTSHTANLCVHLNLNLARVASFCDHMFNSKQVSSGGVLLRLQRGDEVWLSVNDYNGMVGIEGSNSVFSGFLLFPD
As to the kind of experiment: ELISA, plate coated with BALB/c mouse serum (mouse C1q).

The target of assay [4] is T2, mouse C1q. The description is as above. The source holds these as a separate data set.
Assay [5] deals with T3, human FcγRIA (human, UniProt P12314 16-288, limits assumed).
T3 construct: Recombinant His-tagged protein
T3 sequence (P12314 16-288 limits assumed): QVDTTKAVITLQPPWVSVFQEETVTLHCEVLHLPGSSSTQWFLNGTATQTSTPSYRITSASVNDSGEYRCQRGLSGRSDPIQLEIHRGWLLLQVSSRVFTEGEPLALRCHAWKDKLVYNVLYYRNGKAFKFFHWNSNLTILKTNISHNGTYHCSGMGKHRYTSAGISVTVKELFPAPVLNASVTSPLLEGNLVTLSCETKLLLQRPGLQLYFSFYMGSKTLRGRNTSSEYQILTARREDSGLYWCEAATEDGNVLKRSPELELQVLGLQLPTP
As to the kind of experiment: ELISA, His-tagged FcγR captured by anti-His antibody.

Assay [6] addresses T4, human FcγRIIIA (F158) (human, UniProt P08637 17-208).
T4 construct: Recombinant His-tagged protein
The assay is described as above.

In assay [7] the target is T5, human FcγRIIIA (V158) (human, UniProt P08637 17-208).
T5 construct: Recombinant His-tagged protein
T5 sequence (P08637 17-208 F176V limits assumed): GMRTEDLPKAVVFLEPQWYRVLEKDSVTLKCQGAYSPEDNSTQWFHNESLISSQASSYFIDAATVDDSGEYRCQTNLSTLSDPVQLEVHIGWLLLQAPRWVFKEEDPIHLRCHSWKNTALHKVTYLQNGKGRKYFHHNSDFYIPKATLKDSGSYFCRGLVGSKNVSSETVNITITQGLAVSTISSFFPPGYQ
Described as above.

Assay [8] addresses T6, mouse FcγRIII (mouse, UniProt P08508 31-215).
T6 construct: Recombinant His-tagged protein
T6 sequence (looked up): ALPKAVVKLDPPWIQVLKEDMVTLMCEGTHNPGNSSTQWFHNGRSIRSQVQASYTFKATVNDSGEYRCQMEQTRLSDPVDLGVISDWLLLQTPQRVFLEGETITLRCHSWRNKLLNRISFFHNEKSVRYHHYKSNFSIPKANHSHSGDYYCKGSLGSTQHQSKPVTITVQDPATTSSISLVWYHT
The description is as above.

For assay [9], the target named is T7, mouse FcγRI (mouse, UniProt P26151 25-297).
T7 construct: Recombinant His-tagged protein
T7 sequence (looked up): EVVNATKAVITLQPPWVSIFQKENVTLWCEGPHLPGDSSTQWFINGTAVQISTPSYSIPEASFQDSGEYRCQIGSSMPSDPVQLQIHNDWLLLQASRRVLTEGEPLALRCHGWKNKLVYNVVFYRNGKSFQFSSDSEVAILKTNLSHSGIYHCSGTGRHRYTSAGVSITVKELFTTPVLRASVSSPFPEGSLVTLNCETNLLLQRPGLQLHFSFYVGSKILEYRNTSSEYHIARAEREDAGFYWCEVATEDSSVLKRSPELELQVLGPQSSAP
Described as above.

Assay [10] addresses T8, mouse FcγRIIB (mouse, UniProt P08101 30-210, limits assumed).
T8 construct: Recombinant His-tagged protein
T8 sequence (looked up): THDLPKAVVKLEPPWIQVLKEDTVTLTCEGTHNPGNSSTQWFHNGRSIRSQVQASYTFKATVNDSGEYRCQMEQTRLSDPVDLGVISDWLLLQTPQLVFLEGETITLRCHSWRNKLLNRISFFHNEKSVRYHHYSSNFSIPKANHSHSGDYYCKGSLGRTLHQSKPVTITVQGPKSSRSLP
The assay is described as above.

The target in assay [11] is T9, mouse FcγRIV (mouse, UniProt A0A0B4J1G0 21-203).
T9 construct: Recombinant His-tagged protein
T9 sequence: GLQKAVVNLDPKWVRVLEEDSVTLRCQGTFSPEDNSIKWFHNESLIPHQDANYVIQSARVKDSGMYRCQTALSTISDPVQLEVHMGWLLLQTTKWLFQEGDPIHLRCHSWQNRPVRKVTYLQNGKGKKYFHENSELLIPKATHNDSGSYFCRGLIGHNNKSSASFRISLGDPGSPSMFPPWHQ
The assay is described as above.

Assay [12] has as its target T10, human FcγRIIA (R131) (human, UniProt P12318 34-218, limits assumed).
T10 construct: Recombinant His-tagged protein
T10 sequence (looked up): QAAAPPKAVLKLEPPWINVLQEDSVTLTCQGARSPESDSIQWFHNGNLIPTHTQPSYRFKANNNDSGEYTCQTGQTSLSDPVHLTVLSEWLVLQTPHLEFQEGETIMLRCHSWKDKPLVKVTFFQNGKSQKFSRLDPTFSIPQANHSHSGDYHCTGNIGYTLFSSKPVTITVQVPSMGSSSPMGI
The description is as above.

Assay [13] deals with T11, human FcγRIIA (H131) (human, UniProt P12318 34-218, limits assumed).
T11 construct: Recombinant His-tagged protein
T11 sequence (looked up): T10 sequence (looked up) with R134H
Described as above.

Assay [14] has as its target T12, human FcγRIIB (human, UniProt P31994 43-217, limits assumed).
T12 construct: Recombinant His-tagged protein; also called FcγRIIB (human)
T12 sequence (looked up): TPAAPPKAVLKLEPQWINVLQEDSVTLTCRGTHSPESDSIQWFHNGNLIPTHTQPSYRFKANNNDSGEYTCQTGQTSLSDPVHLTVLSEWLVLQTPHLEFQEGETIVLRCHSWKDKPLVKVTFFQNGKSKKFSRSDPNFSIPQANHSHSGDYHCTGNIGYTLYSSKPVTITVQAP
The assay is described as above.

T1 sequence (P02745 23-245 limits assumed, chain 1 of 3): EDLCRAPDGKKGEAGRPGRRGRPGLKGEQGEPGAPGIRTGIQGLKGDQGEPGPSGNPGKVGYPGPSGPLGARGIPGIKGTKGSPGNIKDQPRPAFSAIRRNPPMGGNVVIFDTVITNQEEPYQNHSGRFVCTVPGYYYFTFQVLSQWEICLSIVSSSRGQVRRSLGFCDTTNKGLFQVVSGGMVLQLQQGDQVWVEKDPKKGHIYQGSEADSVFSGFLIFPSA
T1 sequence (P02746 28-253 limits assumed, chain 2 of 3): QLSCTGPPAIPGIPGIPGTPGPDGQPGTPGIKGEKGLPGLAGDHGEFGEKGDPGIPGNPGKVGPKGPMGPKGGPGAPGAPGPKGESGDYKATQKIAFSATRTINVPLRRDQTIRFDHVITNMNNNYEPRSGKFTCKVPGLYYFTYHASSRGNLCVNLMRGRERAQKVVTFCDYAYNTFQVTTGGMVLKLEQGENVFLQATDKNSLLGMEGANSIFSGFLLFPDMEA
T1 sequence (P02747 29-245 limits assumed, chain 3 of 3): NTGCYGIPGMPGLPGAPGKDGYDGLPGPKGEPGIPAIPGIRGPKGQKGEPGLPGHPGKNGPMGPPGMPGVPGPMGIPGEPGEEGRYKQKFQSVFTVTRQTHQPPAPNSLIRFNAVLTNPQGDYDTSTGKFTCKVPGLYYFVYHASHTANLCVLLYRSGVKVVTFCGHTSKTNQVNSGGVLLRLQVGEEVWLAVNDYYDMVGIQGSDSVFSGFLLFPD
T4 sequence (P08637 17-208 limits assumed): as the sequence (P08637 17-208 F176V limits assumed) above, with V160F counted along it

B1: 3F6-hIgG1HEK (antibody)
heavy: not shown
light: DIVLTQSPDSLAVSLGERATINCRASESVEYSGASLMQWYQHKPGQPPKLLIYAASNRESGVPDRFSGSGSGTDFTLTISPVQAEDVAMYFCQQSRKVPSTFGGGTKLEIKRTVAAPSVFIFPPSDEQLKSGTASVVCLLNNFYPREAKVQWKVDNALQSGNSQESVTEQDSKDSTYSLSSTLTLSKADYEKHKVYACEVTHQGLSSPVTKSFNRGEC
modifications: Asn297 N-glycans as made by HEK-293F cells (more G1F, G2F and sialic acid than the CHO product)
notes: also called 3F6-hIgG1HEK WT; 3F6-IgG1
Consider B1, for which the Ka was determined as 1.87e+07 M⁻¹ in assay [1]; 1.87e+07 M⁻¹ in assay [2]; 6.08e+07 M⁻¹ in assay [3]; 6.08e+07 M⁻¹ in assay [4]; 7.88e+08 M⁻¹ in [5]; 1.97e+06 M⁻¹ in assay [6]. The Ka in [7] was 2.31e+07 M⁻¹; in assay [8], 1.69e+06 M⁻¹; in [9], 1.84e+08 M⁻¹; in assay [10], 1.61e+06 M⁻¹; in [11] it was 1.35e+08 M⁻¹; in assay [12], 1.53e+06 M⁻¹. For the same molecule, the Ka in [13] came out at 1.13e+06 M⁻¹; in assay [14] it was 925000 M⁻¹.

B2: 3F6-hIgG1CHO (antibody)
heavy: not shown
light: B1 light
modifications: Asn297 N-glycans as made by CHO-DG44 cells (mainly G0F, less G1F and G2F)
notes: Humanized 3F6 human IgG1 produced in CHO-DG44 cells; also called 3F6-hIgG1CHO WT; CHO-produced antibody
B2: the Ka in assay [1] amounted to 4.91e+06 M⁻¹; in assay [2], 4.91e+06 M⁻¹; in assay [3], 8.87e+06 M⁻¹; in [4], 8.87e+06 M⁻¹; in assay [5], 7.66e+08 M⁻¹; in [6], 3.09e+06 M⁻¹. The Ka in [7] was 2.75e+07 M⁻¹; in assay [8], 1.49e+06 M⁻¹; in [9], 1.77e+08 M⁻¹; in [10], 1.53e+06 M⁻¹; in [11] it was 1.15e+08 M⁻¹; in assay [12] it was 2.36e+06 M⁻¹. Also, the Ka in [13] was determined as 1.75e+06 M⁻¹; in [14], 1.65e+06 M⁻¹.
